Test results: patent US20240268361A1

Assays:
[1] = target: mouse TFR1 (NP_035768.1) (mouse) (UniProt Q62351); test: flow cytometry, C57BL/6 wild-type mouse B cells stained with APC anti-human CD71
[2] = target: mouse TFR1 (NP_035768.1) (mouse) (UniProt Q62351); test: flow cytometry, C57BL/6 wild-type bone marrow erythroid cells stained with APC anti-human CD71
[3] = target: humanized TFR1 protein (engineered mouse TFR1 after humanization) (chimeric mouse/human) (UniProt P02786); test: flow cytometry, bone marrow erythroid cells of TFR1 gene humanized homozygous mouse stained with APC anti-human CD71
[4] = target: humanized TFR1 protein (engineered mouse TFR1 after humanization) (chimeric mouse/human) (UniProt P02786); test: flow cytometry, B cells of TFR1 gene humanized heterozygous mouse (carry both mouse and humanized TFR1) stained with APC anti-human CD71
[5] = target: mouse TFR1 (NP_035768.1) (mouse) (UniProt Q62351); test: flow cytometry, C57BL/6 wild-type mouse B cells stained with PE anti-mouse CD71
[6] = target: mouse TFR1 (NP_035768.1) (mouse) (UniProt Q62351); test: flow cytometry, C57BL/6 wild-type bone marrow erythroid cells stained with PE anti-mouse CD71
[7] = target: humanized TFR1 protein (engineered mouse TFR1 after humanization) (chimeric mouse/human) (UniProt P02786); test: flow cytometry, bone marrow erythroid cells of TFR1 gene humanized homozygous mouse stained with PE anti-mouse CD71
[8] = target: mouse TFR1 (NP_035768.1) (mouse) (UniProt Q62351); test: flow cytometry, B cells of TFR1 gene humanized heterozygous mouse (carry both mouse and humanized TFR1) stained with PE anti-mouse CD71

Chain of UniProt P02786 (P02786 other isoform, or with tags, fused parts or gaps mutant): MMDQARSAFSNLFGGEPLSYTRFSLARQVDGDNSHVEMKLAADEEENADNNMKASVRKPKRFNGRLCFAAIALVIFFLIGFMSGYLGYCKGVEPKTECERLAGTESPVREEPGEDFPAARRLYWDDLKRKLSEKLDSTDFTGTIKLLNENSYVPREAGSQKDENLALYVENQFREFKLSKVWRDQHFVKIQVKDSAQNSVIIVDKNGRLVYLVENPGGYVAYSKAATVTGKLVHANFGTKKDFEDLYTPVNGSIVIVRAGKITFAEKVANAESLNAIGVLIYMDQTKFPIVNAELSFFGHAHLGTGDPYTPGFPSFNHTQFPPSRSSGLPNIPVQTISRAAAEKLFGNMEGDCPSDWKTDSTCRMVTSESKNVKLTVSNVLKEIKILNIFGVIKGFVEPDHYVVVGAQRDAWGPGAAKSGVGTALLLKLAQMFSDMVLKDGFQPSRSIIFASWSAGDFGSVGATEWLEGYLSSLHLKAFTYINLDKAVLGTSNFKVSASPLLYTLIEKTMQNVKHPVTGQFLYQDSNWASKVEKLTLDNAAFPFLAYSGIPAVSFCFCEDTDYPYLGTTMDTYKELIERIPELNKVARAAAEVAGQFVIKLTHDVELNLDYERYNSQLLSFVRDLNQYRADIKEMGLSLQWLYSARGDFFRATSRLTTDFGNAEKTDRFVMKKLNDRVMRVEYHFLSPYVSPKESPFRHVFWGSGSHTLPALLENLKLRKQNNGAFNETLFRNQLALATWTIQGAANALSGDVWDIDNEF
Chain of UniProt Q62351 (Q62351 whole entry): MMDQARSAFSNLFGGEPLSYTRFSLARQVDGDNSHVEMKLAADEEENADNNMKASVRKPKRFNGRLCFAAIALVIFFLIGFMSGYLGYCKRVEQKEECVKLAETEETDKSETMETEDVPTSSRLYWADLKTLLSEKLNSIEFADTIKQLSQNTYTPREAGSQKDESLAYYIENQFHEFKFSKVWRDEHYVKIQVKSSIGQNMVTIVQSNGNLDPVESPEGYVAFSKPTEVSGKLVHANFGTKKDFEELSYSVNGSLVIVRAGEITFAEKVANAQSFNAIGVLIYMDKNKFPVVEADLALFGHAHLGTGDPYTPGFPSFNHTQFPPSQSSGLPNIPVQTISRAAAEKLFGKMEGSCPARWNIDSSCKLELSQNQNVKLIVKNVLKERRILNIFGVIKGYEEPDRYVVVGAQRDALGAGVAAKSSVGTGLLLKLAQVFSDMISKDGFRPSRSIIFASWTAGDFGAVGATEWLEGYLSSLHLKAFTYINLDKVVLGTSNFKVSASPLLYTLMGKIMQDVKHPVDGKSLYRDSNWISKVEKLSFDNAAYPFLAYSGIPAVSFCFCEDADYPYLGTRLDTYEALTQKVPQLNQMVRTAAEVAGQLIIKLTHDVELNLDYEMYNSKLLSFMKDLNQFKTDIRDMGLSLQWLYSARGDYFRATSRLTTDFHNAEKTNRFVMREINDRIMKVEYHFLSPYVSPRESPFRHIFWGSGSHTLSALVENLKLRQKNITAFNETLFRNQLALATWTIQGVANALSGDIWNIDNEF

percent of B cells positive [1] [%] | percent of erythroid cells positive [2] [%] | percent of erythroid cells positive [3] [%] | percent of B cells positive [4] [%] | percent of B cells positive [5] [%] | percent of erythroid cells positive [6] [%] | percent of erythroid cells positive [7] [%] | percent of B cells positive [8] [%] | Substance
0.2 | 0.087 | 10.1 | 11.3 | – | – | – | – | APC anti-human CD71 Antibody (BioLegend, Catalog number: 334107)
– | – | – | – | 50.6 | 14.2 | 0.04 | 32.9 | PE anti-mouse CD71 Antibody (BioLegend, Catalog number: 113807)
